Reference: the RNAGym collection of RNA variant scans (doi:10.1073/pnas.2313332121)
This sample holds only a part of the variants without activity.

B1: TPR 5TU (parent)
chain: GGAUCUUCUCGAUCUAACAAAAAAGACAAAUCUGCCACAAAGCUUGAGAGCAUCUUCGGAUGCAGAGGCGGCAGCCUUCGGUGGCGCGAUAGCGCCAACGUUCUCAACUAUGACACGCAAAACGCGUGCUCCGUUGAAUGGAGUUUAUCAUG

Variants of: B1
Experiment: polymerase ribozyme fitness, log enrichment relative to wild type (log ratio); higher = more active; in vitro selection for triplet polymerase activity
Method in brief: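 For each subunit of a heterodimeric triplet polymerase ribozyme, a mutant library was built by PCR and transcribed, then taken through a single in vitro selection round in triplicate. Selection involved annealing to a biotinylated primer, the partner subunit and triplets, incubation frozen at −7 °C, gel excision of extended constructs, capture on streptavidin beads and RT-PCR. Genotypes were retained after Illumina sequencing of inputs and outputs only with ≥10 input reads and ≥1 read in each output. Fitness is defined as the logarithm of a genotype's enrichment relative to wild-type enrichment, using inverse-variance-weighted averages across replicates, with the logarithm taken to base 2.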

Question: For GGAUCUUCUCGAUCUAACAAAAAAGACAAAUCUGCCACAAAGCUUGAGAGCAUCUUCGGAUGCAGAGGCGGCAGCCUUCGGUGGCGCGAUAGCGCUAACGUUCUCAACUAUGACGCGCAAAACGCGUGCUCCGUUGAAUGGAGUUUAACAUG, which “polymerase ribozyme fitness (log ratio)” value is on record?
Answer: -3.95

Question: Which “polymerase ribozyme fitness (log ratio)” value does the source give for GGAUCUUCUCGAUCUAACCAAAAAGACAAAUCUGCCACAAAGCUUGAGAGCAUCUUCGGAUGCAGAGGCGGCAGCCUUCGGUGGCGCGAUAGCGCCAACGUUCUCAACUAUGACACGCAAAACGCGUCCUCCGUUGAAUGGAGUUUAUCAUG here?
Answer: -3

Question: Which “polymerase ribozyme fitness (log ratio)” value does the source give for GGAUCUUCUCGAUCUAAGAAAAAAGACAAAUCUGCCACAAAGCUUGAGAGCAUCUUCGGAUGCAGAGGCGGCAGCCUUCGGUGGCGCGAUAGCGCCAACGUUCUCAACUAUGACACGCAAAACGCGUGCUCCGUUGAAUGCAGUUUAUCAUG here?
Answer: -1.51

Question: Which “polymerase ribozyme fitness (log ratio)” value does the source give for GGAUCUUCUCGAUCUAACAAAAAAGACAAAUCUGCCACAAAGCUUGAGAGCAUCUUCGGAUGCAGAGGCGGCAGCCUUUGGUGGCGCGAUAGCGCCAACGUUCUCAACUAUGACACGCAAAACGCGUGCUCCGUUGAAUGGAGUUUAUCAUG here?
Answer: -1.47

Question: With GGAUCUUCUCGAUCUAACAAAAAAGAGAAAUCUGCCACAAAGCGUGAGAGCAUCUUCCGAUGCAGAGGCGCCAGCCUUCGGUGGCGCGAUAGGACCAACGAACUCAACUAUGACACGCAAAACGCGUGCUCCGUUGAAUGGAGUUUAUCAUG as the variant, how does the “polymerase ribozyme fitness (log ratio)” value read?
Answer: ≤ -4.2

Question: With GGAUCUUCUCGAUCUAACAAAAAAGACAAAUCUGCCACAAAGCUUGAGAGCAUCUUCGGAUGCAGAGGCGGCAGCCUUCGGUGGAGGCAUAGCGCCGACGUUCUCAACUAUGACACGCAAAACGCGUGCGCCGUUGAAUGCAGUUUAUCAUG as the variant, how does the “polymerase ribozyme fitness (log ratio)” value read?
Answer: ≤ -4.2

Question: With GGAUCUUCUCGAUCUAACAAAAAAGACAAAUCUGCCACAAAGCUUGAGAGCAUCUUCGGAUGCAGAGGCGGCAGCCUUCGGUAGCGCGAUAUCGCAAACGUUCUCAACUAUGACACGCAAAACGCGUGCUCCGUUGAAUGGAGUUUCUCAUG as the variant, how does the “polymerase ribozyme fitness (log ratio)” value read?
Answer: -3.05

Question: With GGAUCUUCUCGAUCUAACAAAAAAGACAAAUCUGCCACAAAGCUUGAGAGCAUCUUCGGAUGAAGAGGCGGCAGCCUUCGGUGGCGCGAUAGUGCCACCGUUCUCAACUAUGACACGCAAAACGCGUGCUCCGUUGAAUGGAGUUUAUCAUG as the variant, how does the “polymerase ribozyme fitness (log ratio)” value read?
Answer: -1.62

Question: For GGAUCUUCUCGAUCUAACAAAAAAGACCAAUCUGCCACAAAACUUGAGAGCAUCUUCGGAUGCAGAGGCGGCAGCCUUCGGUGGCGCGAUAGCGCCAACGUUCUCAACUAUGUCAUGCAAAACGCGUGCUCCGUUGAAUGGAGUUUAUCAUG, which “polymerase ribozyme fitness (log ratio)” value is on record?
Answer: ≤ -4.2

Question: For GGAUCUUCUCGAUCUAACAAAAAAGACAAAUCUGCCACAAAGCUUGAGAGCAUCUUCGGAUGCAGAGCCGGCACCCUUCGGUGGCGUGAUAGCGCCAACGUUCUCAACUAUGACACGAAAAACGCGUGCUCCGUAGAAUGGAGUUUAUGAUG, which “polymerase ribozyme fitness (log ratio)” value is on record?
Answer: ≤ -4.2

Question: With GGAUCUUCUCGAUCUAACAAAAAAGACAAAUCUGCCACAAAGCUUGAGAUCAUCUUCGGAUGCAGAGGCGGCAGCCUUCGGUGGCGCGAUAGCGCCAACGUUCUCAACUAUGACACGCAAAACGCGUGCACCGUUGAAUGGAGUUUAUCAUG as the variant, how does the “polymerase ribozyme fitness (log ratio)” value read?
Answer: -2.51

Question: For GGAUCUUCUCGAUCUAACAAAAAAGACAAAUCUGCCACAAAGCUUGAGACCCUCUUCGGAUGCAGAGGCGGCAGCCUUAGGUGGCGCGAUAGCGCCAACGUUCUCAACUAUGACAGGCAAAACGGGUGCUCGGUUGAAUGGAGUUUAUCAUG, which “polymerase ribozyme fitness (log ratio)” value is on record?
Answer: ≤ -4.2

Question: For GGAUCUUCUCGAUCUAACAAAAAAGACAAAUCUGCCACAACACUUGAGAGCAUCUUCGCAUGCAGAGACGGCAGCCUUCGGUGGCGCGAUAGCGUCAACGUUCUCAACUAUGACACGCAAAACGCGUGCUCCGUUGAAUGGAGUUUAUCAUG, which “polymerase ribozyme fitness (log ratio)” value is on record?
Answer: ≤ -4.2

Question: For GGGUCUUGUCGAUCUAACAAAAAAGACGAAUCUGCCACAAAGCUUUAGAACAUCUUCGGAUGCAGACGCGGCAGCCUUCGGUGGCGCGAUACCGCCAACGUUCUCAUCUAUGACACGCAAAACGCGUGCUCCGUUGAAUGGAGUUUAUCAGG, which “polymerase ribozyme fitness (log ratio)” value is on record?
Answer: ≤ -4.2

Question: For GGAUCUUCUCGAUCUAACAAAAAAGACAAAUCUGCCACAAAGCUUGAGAGCGACUUCGGAUGCAGAGGCGGCAGCCUUCGGUUGCGCGAUAGCGCCAACGUUCUCAACUAUGACACGCAAAACGCGUGCUCCGUUGAAUGGAGUUUAUCAUG, which “polymerase ribozyme fitness (log ratio)” value is on record?
Answer: -2.28

Question: With GGAUCUUCUCGAUCUAACAAAAAAGACAAAUCUGCCACAAAGCUUGAGAGCAUCUUCUGAGGCAGAGGCGGCAGCCUUCGGUGGCGCGAUAGCGCCAACGUUCUCAACUAUGACACGCAAAACGCGUGCUCCGUUGAAUGGAGUUUAUCAUG as the variant, how does the “polymerase ribozyme fitness (log ratio)” value read?
Answer: -1.81

Question: With GGAUCUUCUCGAUCCAACAAAAAAGACAAAUCUGCCACAAAGCUUGAGAGCAUCUUCGGAUGCAGAGGCGGCAGCCUUCGGUGGCGCGAUAACGCCAAGGUUCUCAACUAUGACACGCAAAACGCGUGCUCCGUUGAAUGGAGUUUAACAUG as the variant, how does the “polymerase ribozyme fitness (log ratio)” value read?
Answer: ≤ -4.2

Question: Which “polymerase ribozyme fitness (log ratio)” value does the source give for GGAUCUUCUCGAGCUAACAAAAAAGACAAAUAUGCCACAAAGCUUGAGAGCAUCUUCGGAUGCAGAGGCGGCAGCCUUCGGUGGCGCGAUAGAGCCAACGUUCUCAACUAUGACACGCAAAACGCGGGCUCCGUUGAAUGGAGUUUAUCAUG here?
Answer: ≤ -4.2

Question: For GGAUCUUCUCGAUCUAACAAAAAAGACAAAUCUGCCACAAAGCUUGAGAGCAACUUCGGAUGCAGAGGCGGCAGCCUUCGGUGGCGCGAUAGCGCCAACGUUCUCAACUAUGACACGCAAAACGCGUGCUCCGUUGAAUGGAUUUUAUCAUG, which “polymerase ribozyme fitness (log ratio)” value is on record?
Answer: -3.09
